Laboratory results taken from publication PMC6555819, “Comprehensive study of nuclear receptor DNA binding provides a revised framework for understanding receptor specificity”.
Numbering of substitutions follows the chain as printed.

Biological target: RARg:RXRa (Homo sapiens, UniProt P13631;P19793 full;full)
Assay: no ligand; PBM; 270 nM : 90 nM RXRa; PBS pH 7.4, 2% milk, 0.02% Triton X-100, 1 mM DTT, BSA, 0.4 mg/ml salmon testes DNA
Conditions: tags: His kept;His cleaved; copies: 1;1; label: surface-attached array probe
How it was run: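 For binding z-scores, the reference was random background probes on custom Agilent 4×180K protein-binding microarrays. These arrays were incubated 1 h with ligand-free nuclear receptor dimers in PBS pH 7.4, 2% milk, 0.02% Triton X-100, 1 mM DTT, 0.2 mg/mL BSA and 0.4 mg/ml salmon testes DNA. Fluorescence was scanned after antibody detection of each partner (one per run) and regression-normalized.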

Sequence of RARg:RXRa (P13631 whole entry, chain 1 of 2): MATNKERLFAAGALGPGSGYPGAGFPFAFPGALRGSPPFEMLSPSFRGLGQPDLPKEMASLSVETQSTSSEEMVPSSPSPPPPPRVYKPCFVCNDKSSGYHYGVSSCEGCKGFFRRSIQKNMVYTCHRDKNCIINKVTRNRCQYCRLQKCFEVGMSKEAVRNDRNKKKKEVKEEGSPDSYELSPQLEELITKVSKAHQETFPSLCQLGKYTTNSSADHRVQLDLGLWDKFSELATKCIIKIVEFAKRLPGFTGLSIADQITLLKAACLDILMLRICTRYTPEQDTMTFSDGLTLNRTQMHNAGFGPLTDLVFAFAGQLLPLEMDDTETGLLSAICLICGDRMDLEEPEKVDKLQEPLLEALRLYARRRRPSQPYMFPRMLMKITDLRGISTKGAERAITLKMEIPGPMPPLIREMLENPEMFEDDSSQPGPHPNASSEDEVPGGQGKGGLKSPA
Sequence of RARg:RXRa (P19793 whole entry, chain 2 of 2): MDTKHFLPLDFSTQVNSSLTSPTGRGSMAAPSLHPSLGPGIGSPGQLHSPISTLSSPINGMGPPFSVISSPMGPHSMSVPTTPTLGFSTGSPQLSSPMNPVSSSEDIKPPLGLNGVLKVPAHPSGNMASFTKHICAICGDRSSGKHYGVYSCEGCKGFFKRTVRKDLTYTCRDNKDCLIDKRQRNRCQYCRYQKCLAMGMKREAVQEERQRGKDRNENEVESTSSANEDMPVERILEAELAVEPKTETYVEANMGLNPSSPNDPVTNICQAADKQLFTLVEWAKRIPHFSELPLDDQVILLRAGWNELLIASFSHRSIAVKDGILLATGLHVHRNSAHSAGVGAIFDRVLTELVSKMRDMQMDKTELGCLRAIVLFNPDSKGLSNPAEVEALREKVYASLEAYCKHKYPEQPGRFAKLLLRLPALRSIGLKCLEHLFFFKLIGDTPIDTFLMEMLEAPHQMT

B1: NRC3_wobSeed51_DR2_A12T_o1 (dsDNA)
DNA 1: GCCCTCGGAGGTCAGAAGGTCAGAGCTGTCCGCTTTGCGATTGACAGCGTAGAATGAAGG
DNA 2: CCTTCATTCTACGCTGTCAATCGCAAAGCGGACAGCTCTGACCTTCTGACCTCCGAGGGC
  binding signal: 7.6 PBM z-score against 500 random probes

B2: NRC3_wobSeed122_DR5_T9G_o1 (dsDNA)
DNA 1: GCGCTAGTGGGTCAGTAAAAGGTCACACACCGGTCGGCGATTGACAGCGTAGAATGAAGG
DNA 2: CCTTCATTCTACGCTGTCAATCGCCGACCGGTGTGTGACCTTTTACTGACCCACTAGCGC
  binding signal: 7.46 PBM z-score against 500 random probes

B3: NRC3_wobSeed136_DR5_T8A_o1 (dsDNA)
DNA 1: GCTAGCCAAGGTCATTCAGGGGCCAGTATAGAAAGCGCGATTGACAGCGTAGAATGAAGG
DNA 2: CCTTCATTCTACGCTGTCAATCGCGCTTTCTATACTGGCCCCTGAATGACCTTGGCTAGC
  binding signal: 7.41 PBM z-score against 500 random probes

B4: NRC3_wobSeed109_DR4_A16G_o1 (dsDNA)
DNA 1: GCCGTCCAAGGTCATGGGAGGTCAGTGAAGACAGATGCGATTGACAGCGTAGAATGAAGG
DNA 2: CCTTCATTCTACGCTGTCAATCGCATCTGTCTTCACTGACCTCCCATGACCTTGGACGGC
  binding signal: 7.38 PBM z-score against 500 random probes

B5: NRC3_wobSeed61_DR2_G15C_o1 (dsDNA)
DNA 1: GCCGTCCAAGGTCACCAGGTCAGTGAAAGCGACGTGGCGATTGACAGCGTAGAATGAAGG
DNA 2: CCTTCATTCTACGCTGTCAATCGCCACGTCGCTTTCACTGACCTGGTGACCTTGGACGGC
  binding signal: 7.32 PBM z-score against 500 random probes

B6: NRC3_wobSeed134_DR5_C24G_o1 (dsDNA)
DNA 1: GCGCTGCTAGGTCAACTGATGGTGAGCTAAAGCTCGGCGATTGACAGCGTAGAATGAAGG
DNA 2: CCTTCATTCTACGCTGTCAATCGCCGAGCTTTAGCTCACCATCAGTTGACCTAGCAGCGC
  binding signal: 4.58 PBM z-score against 500 random probes

B7: NRC3_wobSeed50_DR2_C25A_o1 (dsDNA)
DNA 1: GCCCTAGTTGGTCAGGAGGTCACAAACCGGATATGAGCGATTGACAGCGTAGAATGAAGG
DNA 2: CCTTCATTCTACGCTGTCAATCGCTCATATCCGGTTTGTGACCTCCTGACCAACTAGGGC
  binding signal: 4.55 PBM z-score against 500 random probes

B8: NRC3_wobSeed46_DR1_A8G_o1 (dsDNA)
DNA 1: GCTTACCGAGGTGAAAGGTCGTTGATGCACGCCTTGGCGATTGACAGCGTAGAATGAAGG
DNA 2: CCTTCATTCTACGCTGTCAATCGCCAAGGCGTGCATCAACGACCTTTCACCTCGGTAAGC
  binding signal: 4.52 PBM z-score against 500 random probes

B9: NRC3_wobSeed63_DR2_G25T_o1 (dsDNA)
DNA 1: GCCGAACTAGGTCACCAGGACAGTTAAGAGGTTGGAGCGATTGACAGCGTAGAATGAAGG
DNA 2: CCTTCATTCTACGCTGTCAATCGCTCCAACCTCTTAACTGTCCTGGTGACCTAGTTCGGC
  binding signal: 4.47 PBM z-score against 500 random probes

B10: NRC3_wobSeed98_DR4_G7A_o1 (dsDNA)
DNA 1: GCACTAATTGGTCAGCTGAGGTCACACACAATTCGGGCGATTGACAGCGTAGAATGAAGG
DNA 2: CCTTCATTCTACGCTGTCAATCGCCCGAATTGTGTGTGACCTCAGCTGACCAATTAGTGC
  binding signal: 4.44 PBM z-score against 500 random probes

B11: NRC3_wobSeed34_DR1_T4G_o1 (dsDNA)
DNA 1: GCAGCGAAAGGTCGAAGGTGAGTATACCCACCCGAAGCGATTGACAGCGTAGAATGAAGG
DNA 2: CCTTCATTCTACGCTGTCAATCGCTTCGGGTGGGTATACTCACCTTCGACCTTTCGCTGC
  binding signal: 4.41 PBM z-score against 500 random probes

B12: NRC3_wobSeed99_DR4_A26T_o1 (dsDNA)
DNA 1: GCTCTCGGAGGACACGAAAGGTCAGTGCTCGACATCGCGATTGACAGCGTAGAATGAAGG
DNA 2: CCTTCATTCTACGCTGTCAATCGCGATGTCGAGCACTGACCTTTCGTGTCCTCCGAGAGC
  binding signal: 4.39 PBM z-score against 500 random probes

B13: NRC3_wobSeed135_DR5_G4C_o1 (dsDNA)
DNA 1: GCCCAACTAGGTCATTGACAGGACAGTGAATAGTAAGCGATTGACAGCGTAGAATGAAGG
DNA 2: CCTTCATTCTACGCTGTCAATCGCTTACTATTCACTGTCCTGTCAATGACCTAGTTGGGC
  binding signal: 4.34 PBM z-score against 500 random probes

B14: NRC3_wobSeed2_DR0_C25T_o1 (dsDNA)
DNA 1: GCCCTAGTTGGTCAAGGTCACACATGCTATAGGTACGCGATTGACAGCGTAGAATGAAGG
DNA 2: CCTTCATTCTACGCTGTCAATCGCGTACCTATAGCATGTGTGACCTTGACCAACTAGGGC
  binding signal: 4.31 PBM z-score against 500 random probes

B15: NRC3_wobSeed63_DR2_T24C_o1 (dsDNA)
DNA 1: B9 DNA 1 with T24C, T25G
DNA 2: B9 DNA 2 with A36C, A37G
  binding signal: 4.29 PBM z-score against 500 random probes

B16: NRC3_wobSeed82_DR3_C16G_o1 (dsDNA)
DNA 1: GCATCGAAAGGTCGAGGAGGTGAGTATACACCGTTTGCGATTGACAGCGTAGAATGAAGG
DNA 2: CCTTCATTCTACGCTGTCAATCGCAAACGGTGTATACTCACCTCCTCGACCTTTCGATGC
  binding signal: 4.27 PBM z-score against 500 random probes

B17: NRC3_wobSeed17_DR0_T6A_o1 (dsDNA)
DNA 1: GCATAAGTAGGTTAGGGTCATTCAGAAAGTAGGGAAGCGATTGACAGCGTAGAATGAAGG
DNA 2: CCTTCATTCTACGCTGTCAATCGCTTCCCTACTTTCTGAATGACCCTAACCTACTTATGC
  binding signal: 4.22 PBM z-score against 500 random probes

B18: NRC3_wobSeed141_DR5_A25C_o1 (dsDNA)
DNA 1: GCAGTCAAAGTTCAGGACGAGGTACCGTAAAGCACGGCGATTGACAGCGTAGAATGAAGG
DNA 2: CCTTCATTCTACGCTGTCAATCGCCGTGCTTTACGGTACCTCGTCCTGAACTTTGACTGC
  binding signal: 4.17 PBM z-score against 500 random probes

B19: NRC3_wobSeed101_DR4_A24C_o1 (dsDNA)
DNA 1: GCCCTTACGGGTCACTCCAGGTTCTAGCATCGGAGTGCGATTGACAGCGTAGAATGAAGG
DNA 2: CCTTCATTCTACGCTGTCAATCGCACTCCGATGCTAGAACCTGGAGTGACCCGTAAGGGC
  binding signal: 4.14 PBM z-score against 500 random probes

B20: NRC3_wobSeed82_DR3_T4A_o1 (dsDNA)
DNA 1: B16 DNA 1 with T4A, G16C
DNA 2: B16 DNA 2 with C45G, A57T
  binding signal: 4.09 PBM z-score against 500 random probes

B21: NRC3_wobSeed39_DR1_T23G_o1 (dsDNA)
DNA 1: GCCGAACTAGGTCAAAGGACAGGGAAAGGCGACGTAGCGATTGACAGCGTAGAATGAAGG
DNA 2: CCTTCATTCTACGCTGTCAATCGCTACGTCGCCTTTCCCTGTCCTTTGACCTAGTTCGGC
  binding signal: 4.06 PBM z-score against 500 random probes

B22: NRC3_wobSeed87_DR3_C17G_o1 (dsDNA)
DNA 1: GCCGAACTAGGTCATCGAGGACAGTGAATACATTGAGCGATTGACAGCGTAGAATGAAGG
DNA 2: CCTTCATTCTACGCTGTCAATCGCTCAATGTATTCACTGTCCTCGATGACCTAGTTCGGC
  binding signal: 4.03 PBM z-score against 500 random probes

B23: NRC3_wobSeed82_DR3_T21A_o1 (dsDNA)
DNA 1: B16 DNA 1 with G16C, T21A
DNA 2: B16 DNA 2 with A40T, C45G
  binding signal: 4.02 PBM z-score against 500 random probes

B24: NRC3_wobSeed88_DR3_T25C_o1 (dsDNA)
DNA 1: GCTAGCCTAGGTCATGCGGGCCAGCATAGTGTCGGCGCGATTGACAGCGTAGAATGAAGG
DNA 2: CCTTCATTCTACGCTGTCAATCGCGCCGACACTATGCTGGCCCGCATGACCTAGGCTAGC
  binding signal: 3.97 PBM z-score against 500 random probes
